Results from patent US20190300618A1 (Merck Sharp & Dohme, published 2019).
Where a chain is given by its changes, count along the chain named.

T1: W13A
T1 construct: also called hCD27 W13A
T1 receptor: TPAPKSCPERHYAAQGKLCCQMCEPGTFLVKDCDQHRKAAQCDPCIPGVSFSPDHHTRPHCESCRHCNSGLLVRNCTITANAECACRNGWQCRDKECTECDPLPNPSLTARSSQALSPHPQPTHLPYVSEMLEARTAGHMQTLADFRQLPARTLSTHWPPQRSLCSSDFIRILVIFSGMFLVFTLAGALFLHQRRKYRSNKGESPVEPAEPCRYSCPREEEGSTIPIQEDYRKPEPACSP

T2: K17A
T2 construct: also called hCD27 K17A
T2 receptor: T1 receptor with A13W, K17A

T3: K31A
T3 construct: also called hCD27 K31A
T3 receptor: T1 receptor with A13W, K31A

T4: R37A
T4 construct: also called hCD27 R37A
T4 receptor: T1 receptor with A13W, R37A

T5: P44A
T5 construct: also called hCD27 P44A
T5 receptor: T1 receptor with A13W, P44A

T6: S63A
T6 construct: also called hCD27 S63A
T6 receptor: T1 receptor with A13W, S63A

T7: N88A
T7 construct: also called hCD27 N88A
T7 receptor: T1 receptor with A13W, N88A

T8: G89A
T8 construct: also called hCD27 G89A
T8 receptor: T1 receptor with A13W, G89A

T9: W90A
T9 construct: also called hCD27 W90A
T9 receptor: T1 receptor with A13W, W90A

T10: Q91A
T10 construct: also called hCD27 Q91A
T10 receptor: T1 receptor with A13W, Q91A

B1: Antibody hCD27.131A (mouse parental 131A) (antibody, V domains shown)
VH: QIQLVQSGPELKKPGETVKISCKASGYTFTNYGMNWVKQAPGKGLKWMGWINTNTGEPTYAEEFKGRFAFSLETSATTAYLQINNLKNEDTATYFCAREGDAMDYWGQGTSVTVSS
VL: QIVLTQSPAIMSASPGEKVTMTCSASSSVSYMHWYQQKSGTSPKRWIYDTSKLASGVPARFSGSGSGTSYSLTISSMEAEDAATYYCQQWNSYPFTFGSGTKLEIK
notes: mouse IgG1; also called mouse hCD27.131A

Legend:
Test in all cases: flow cytometry, CHO-K1; sub-column 1 of 2
W13A = target: T1, W13A
K17A = target: T2, K17A
K31A = target: T3, K31A
R37A = target: T4, R37A
P44A = target: T5, P44A
S63A = target: T6, S63A
N88A = target: T7, N88A
G89A = target: T8, G89A
W90A = target: T9, W90A
Q91A = target: T10, Q91A

Molecule	% of WT hCD27 binding (geo mean FITC) (W13A)	% of WT hCD27 binding (geo mean FITC) (K17A)	% of WT hCD27 binding (geo mean FITC) (K31A)	% of WT hCD27 binding (geo mean FITC) (R37A)	% of WT hCD27 binding (geo mean FITC) (P44A)	% of WT hCD27 binding (geo mean FITC) (S63A)	% of WT hCD27 binding (geo mean FITC) (N88A)	% of WT hCD27 binding (geo mean FITC) (G89A)	% of WT hCD27 binding (geo mean FITC) (W90A)	% of WT hCD27 binding (geo mean FITC) (Q91A)
1A4 (mouse IgG1) (antibody)	89.1%	32.4%	194%	115%	146%	158%	154%	100%	123%	146%
9F4 (mouse IgG2a) (antibody)	90.7%	98%	207%	35%	159%	153%	153%	116%	130%	149%
B1	86%	103%	203%	50.3%	158%	162%	162%	113%	126%	148%
